Laboratory results published in IntAct's records for PubMed 12084833.

B1: Regulatory protein NPR1 (Arabidopsis thaliana (Mouse-ear cress)), P93002 (parent)
chain: MDTTIDGFADSYEISSTSFVATDNTDSSIVYLAAEQVLTGPDVSALQLLSNSFESVFDSPDDFYSDAKLVLSDGREVSFHRCVLSARSSFFKSALAAAKKEKDSNNTAAVKLELKEIAKDYEVGFDSVVTVLAYVYSSRVRPPPKGVSECADENCCHVACRPAVDFMLEVLYLAFIFKIPELITLYQRHLLDVVDKVVIEDTLVILKLANICGKACMKLLDRCKEIIVKSNVDMVSLEKSLPEELVKEIIDRRKELGLEVPKVKKHVSNVHKALDSDDIELVKLLLKEDHTNLDDACALHFAVAYCNVKTATDLLKLDLADVNHRNPRGYTVLHVAAMRKEPQLILSLLEKGASASEATLEGRTALMIAKQATMAVECNNIPEQCKHSLKGRLCVEILEQEDKREQIPRDVPPSFAVAADELKMTLLDLENRVALAQRLFPTEAQAAMEIAEMKGTCEFIVTSLEPDRLTGTKRTSPGVKIAPFRILEEHQSRLKALSKTVELGKRFFPRCSAVLDQIMNCEDLTQLACGEDDTAEKRLQKKQRYMEIQETLKKAFSEDNLELGNSSLTDSTSSTSKSTGGKRSNRKLSHRRR
partner: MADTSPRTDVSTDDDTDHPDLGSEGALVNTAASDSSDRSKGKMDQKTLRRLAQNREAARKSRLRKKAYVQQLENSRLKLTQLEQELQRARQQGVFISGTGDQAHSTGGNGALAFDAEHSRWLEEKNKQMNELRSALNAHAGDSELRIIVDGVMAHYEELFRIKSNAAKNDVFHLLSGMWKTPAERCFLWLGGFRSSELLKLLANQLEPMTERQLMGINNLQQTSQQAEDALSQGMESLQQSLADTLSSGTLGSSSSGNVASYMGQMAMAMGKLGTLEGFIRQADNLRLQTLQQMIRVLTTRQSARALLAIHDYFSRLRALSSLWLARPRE

Variants of: B1
Conditions: with tga2_arath TGA2, P43273

effect of a mutation on the interaction | Variant
disrupting interaction | C150Y
